For experiment [1], the system named is CALU-6 cells (human lung carcinoma). Nature of the experiment: Human non-small cell lung cancer (CALU-6) xenograft model, tumor growth. It counts as in vivo, Swiss Nude mice. Set-up: Growth inhibition based on T/C ratio, T/C ratio (%): concentration or dose not given beside the values. The following applies: for MTV (mean tumor volume): IP Q2DX8, 168A-T2 15 mg/kg, CDDP 5 mg/kg; for MRTV (mean relative tumor volume): ratio of MTV at time t to volume at D12; for Growth inhibition based on T/C ratio, T/C ratio (%): versus vehicle group 1. How it is done: CALU-6 cells were cultured as adherent cells in complete EMEM medium (Ref. CM1MEM18-01, batch No. 462502, Eurobio, France) 10% fetal calf serum (FCS; Ref. CVFSVF00-01, batch No. S13021, Eurobio, France) under a 37° C., 5% CO2 humidified atmosphere. They were amplified in 75 cm^2-flasks to reach 90×10^6 cells.
At D0, CALU-6 cells (human lung carcinoma) were collected from 75 cm^2-flasks by removing the medium and adding 3 ml of trypsine-EDTA (Ref. CEZTDA00-0U, batch No. 633920, Eurobio, France). After 5 min of incubation at 37° C., cells had detached from the plastic and the enzymatic reaction was stopped by adding 3 ml of EMEM medium containing 10% fetal calf serum. Cells were then centrifuged at 700 g for 5 min at room temperature. They were resuspended in serum-free EMEM culture medium. Cells were counted and viability assessment by Trypan Blue exclusion (Ref. CSTCOL03-0U, batch No. 434511, Eurobio, France). The number of viable CALU-6 cells was >99%. The number of cells was then adjusted to 25×10^6 cells/ml in serum-free medium.
Thirty healthy female Swiss Nude mice were anesthetized by IP injection of Ketamine-Xylazine (80 mg/kg-12 mg/kg; Ref. K-113, Sigma, France). CALU-6 cells 5×10^6 cells/mouse in 200 μl of serum-free medium) were then implanted subcutaneously in the right flank of each mouse.
At D12 post-implantation of the CALU-6 cells, the thirty mice were randomized into […]. Tumor volumes had reached 54 to 296 mm^3 and mean tumor volumes were not statistically different between groups after randomization.
Injections in groups 1, 2, 3 and 4 were performed according to the schedules Q2DX8, i.e. 1 quantity every two days, eight times.
Ketamine/Xylazine (80 mg/kg-12 mg/kg; Ref. K-113, Sigma, France) was used to anaesthetize the animals before sacrifice by cervical dislocation. For all animals, the tumor size was measured twice a week with calipers. The tumor volume (mm^3) was measured according to the formula: (length×width^2)/2.
• Tumor growth curves were drawn using the mean tumor volumes (MTV), • Mean Relative tumor volume (MRTV) was calculated as the ratio between the MTV at time t and the volume at the time of injection (t=D12), • Tumor growth inhibition (T/C, %) was evaluated as the ratio of the median tumor volumes of treated groups versus vehicle group.
Statistical analyses of tumor volumes (TV), time to reach ‘TV’, tumor-doubling time (DT), relative tumor volume (RTV) and tumor growth inhibition (T/C) were performed for all groups. Data are expressed as mean±SD. Groups of data were normally distributed. Univariate analysis were performed to assess differences between groups. Statistical significance was then determined using the Student's t test. A P<0.05 was considered as statistically significant. The Statistical analysis was performed using XLSTAT (Addinsoft, France).
On the technique in general: In xenograft studies the graft and the host belong to different species.

The test system of experiment [2] is HUVEC cells. Nature of the experiment: Inhibition of endothelial cell proliferation in vitro (MTT). It counts as cell-based, human. The following applies: comparison with literature (Binetruy-Tournaire et al.). As to the method: HUVEC cells were cultured to confluency in complete EGM2-MV medium (Cambrex) at 37° C. and in 5% CO2 humidified atmosphere. Cells were then collected by trypsine-EDTA digestion (Versene, Eurobio). After 5 min, the enzymatic reaction was stopped by adding 3 ml of the culture medium containing 5% FCS. Cells were then centrifuged at 220 g for 10 min at room temperature, washed twice with 5 ml of culture medium, suspended in complete culture medium, counted and adjusted to 50 000 cells/ml. One hundred μL per well were then distributed to a 96-well cell culture grade micro-plate (5 000 cells/well) and incubated with different concentrations of the purified protein 168A-T2 in Tris-HCl 20 mM buffer (pH 8), containing 150 mM NaCl and urea 2M; this buffer was used as control.
After 42 hrs at 37° C., cell proliferation was measured using thiazolyl blue tetrazolium bromide (MTT) method. Briefly, MTT (Sigma) was dissolved in PBS at 5 mg/ml, the solution was filtered (0.22 μm) and 10 μl were added to each well of the 96-well micro-plates. […] The optical density (OD) at 570 nm was then measured using μQuant micro-plate reader (Bio-Tek Instrument gmbh, Colmar, France) coupled to the KC4 (Bio-Tek) software. […]

Experiment [3] deals with HUVEC. Nature of the experiment: In vitro angiogenesis of HUVEC induced by FGF2 and VEGF on Matrigel. The settings on record: 3.5, 6.9, 13.6 μg/mL (0.2, 0.4, 0.8 μM). It counts as cell-based, human. As to the method: The purified proteins 168A-T2 was tested in vitro on angiogenesis of HUVEC induced by FGF2 and VEGF on Matrigel.
24 wells plates were prepared with 250 μL of BD Matrigel™/well and then incubated 30 minutes in incubator. HUVEC cells were then prepared as described in example 2 and 70 000 cells (in 0.5 mL) were seeded per well and incubated with different concentrations of the purified protein 168A-T2, in Tris-HCl 20 mM buffer (pH 8), containing 150 mM NaCl and urea 2M; this buffer was used as control: • FIG. 2a: Control (Buffer Urea 2M) • FIG. 2b: 168A-T2 3.5 μg/mL (0.2 μM) • FIG. 2c: 168A-T2 6.9 μg/mL (0.4 μM) • FIG. 2d: 168A-T2 13.6 μg/mL (0.8 μM)

Experiment [4] deals with HUVEC. Nature of the experiment: Migration of human endothelial cells (wound assay). It counts as cell-based. The settings on record: 12, 17, 23 μg/mL (0.7, 1, 1.35 μM); 18 hours. As to the method:
Cell migration was tested by the wound assay described by Sato and Rifkin (J Cell Biol. 1988; 107:1199) with few modifications. HUVEC grown in growth medium EGM-2MV (Cambrex) were seeded in 24-well plates at 80 000 cells per well in 500 μL of growth medium and grown to confluence at 37° C. in a humidified atmosphere containing 5% CO2. Cells were scrapped with a plastic tip on one line only. After wounding, the culture medium was changed for fresh medium (control, FIG. 3a) or fresh medium supplemented with: • FIG. 3b: 168A-T2 12 μg/mL (0.7 μM) • FIG. 3c: 168A-T2 17 μg/mL (1 μM) • FIG. 3d: […] 23 μg/mL (1.35 μM)
After 18 hours of culture, cells were observed and photographed under the inverted microscope (Analysis, Olympus, Rungis, France).

Experiment [5] has as its system kidney cancer line (BizX). Nature of the experiment: Inhibition of kidney cancer cell line proliferation in vitro (MTT). It counts as cell-based. The following applies: 48 hours, maximum over tested concentrations. How it is done: (§1) BizX cell preparation of 50000 cells/mL was prepared in complete medium. In a 96 wells plate, […] of the cell preparation was distributed in each well and then incubated with different concentrations of 168A-T2 (each concentration was tested in triplicate). After 48 hours of incubation at 37° C., […] of MTT ([…] in water) were added in each well. After 3 hours of incubation at 37° C., the culture medium was eliminated and […] of DMSO were added to solubilize MMT crystals. The optical density (OD) at 570 nm was then measured using μQuant micro-plate reader (Bio-Tek Instrument gmbh, Colmar, France) coupled to the KC4 (Bio-Tek) software. The OD was corrected by subtracting blank-well OD values (the OD values obtained from wells without cells), and the inhibition of cell proliferation was measured relative to control (OD obtained from wells with untreated kidney tumor cells representing the maximal proliferative response, i.e. 100%).

Experiment [6] deals with lung cancer line (Calu6). Nature of the experiment: Inhibition of lung cancer cell line proliferation in vitro (MTT). The format is cell-based, human. The following applies: 48 hours, maximum over tested concentrations. As to the method: as §1
Calu6 cells were cultured and treated as described in example 5.

Take `N.N.[Cl][Pt][Cl]` [Cisplatin, cis-diamineplatinum(II) dichloride, reference compound]: the “MTV (mean tumor volume)” value in experiment [1] (D12 (start of treatment)) worked out at 142.60 mm^3; in experiment [1] (D14) it was 351.15 mm^3; in experiment [1] (D16), 291.29 mm^3; in experiment [1] (D18), 329.18 mm^3; in experiment [1] (D20) it was 386.84 mm^3; in experiment [1] (D22) it was 470.59 mm^3. Moreover, the results for the “MTV (mean tumor volume)” value in experiment [1] (D24), in experiment [1] (D26) and in experiment [1] (D28) were 595.00 mm^3, 527.98 mm^3 and 742.44 mm^3, respectively.

B1: 168A-T2: fragment of the extracellular domain of protein 168A, SEQ ID NO:4 (108 amino acids), recombinant from E. coli, 18 kD (protein, listed as Homo sapiens)
chain: MAFDVSWFAVHSFGLDKAPVLLSSLDRKGIVTTSRRDWKSDLSLERVSVLEFLLQVHGSEDQDFGNYYCSVTPWVKSPTGSWQKEAEIHSKPVFITVKMDVLNAFKYP
As for B1, the “potency relative to anti-VEGF mAb and/or VEGF receptor (KDR)-based identified peptides” value in experiment [2] is “at least 600 fold”. For the same molecule, the “inhibition of in vitro angiogenesis (capillary tube formation)” value in experiment [3] is recorded as “inhibited in vitro angiogenesis in a dose-dependent manner”. Moreover, in experiment [4], the “inhibition of human endothelial cell migration” value is “inhibited human endothelial cells migration in a dose dependent manner”. In experiment [5], the “inhibition of proliferation of kidney cancer line (BizX)” value is “up to 20%”. The “inhibition of proliferation of lung cancer line (Calu6)” value in experiment [6] was “up to 40%”. In addition, the “MRTV (mean relative tumor volume)” value is 1 in experiment [1] (D12 (reference time)); 1.15 in experiment [1] (D14); 1.93 in experiment [1] (D16); 2.08 in experiment [1] (D18); 2.60 in experiment [1] (D20); 3.47 in experiment [1] (D22). In addition, the “MRTV (mean relative tumor volume)” value in experiment [1] (D24) was found to be 4.83; in experiment [1] (D26) it was 4.14; in experiment [1] (D28), 4.51. In addition, the “MTV (mean tumor volume)” value in experiment [1] (D12 (start of treatment)) came to 159.22 mm^3; in experiment [1] (D14), 181.94 mm^3; in experiment [1] (D16), 264.20 mm^3; in experiment [1] (D18) it was 322.99 mm^3; in experiment [1] (D20) it was 391.90 mm^3; in experiment [1] (D22) it was 485.42 mm^3. For the same molecule, the “MTV (mean tumor volume)” value is given as 642.24 mm^3 in experiment [1] (D24), 529.95 mm^3 in experiment [1] (D26) and 615.96 mm^3 in experiment [1] (D28). The “Growth inhibition based on T/C ratio, T/C ratio (%)” value is recorded as 37% in experiment [1] (D14); 39% in experiment [1] (D16); 17% in experiment [1] (D18); 29% in experiment [1] (D20); 16% in experiment [1] (D22); 15% in experiment [1] (D24). For the same molecule, the “Growth inhibition based on T/C ratio, T/C ratio (%)” value in experiment [1] (D26) and in experiment [1] (D28) was 45% throughout.

The values above are taken from patent publication US9539306B2, “Anti-tumor drug, medicament, composition, and use thereof” (GENE SIGNAL INTERNATIONAL SA, priority 2007, dated 2017).
